In article PMC4186968, “Molecular Basis for Coordinating Transcription Termination with Noncoding RNA Degradation” (Molecular Cell, 2014) one finds Kd, binding result and fold decrease in binding affinity against wild-type Nrd1p CID data, which are given here for 18 molecules.

B3: Nrd1p CID (residues 1-153) (domain or fragment)
chain: MQQDDDFQNFVATLESFKDLKSGISGSRIKKLTTYALDHIDIESKIISLIIDYSRLCPDSHKLGSLYIIDSIGRAYLDETRSNSNSSSNKPGTCAHAINTLGEVIQELLSDAIAKSNQDHKEKIRMLLDIWDRSGLFQKSYLNAIRSKCFAMD

One experiment has as its target T1, Nrd1p CID (Saccharomyces cerevisiae, UniProt P53617).
T1 construct: the CID (residues 1–153) of Nrd1p; His6 (C); made in house
T1 sequence (P53617 1-153): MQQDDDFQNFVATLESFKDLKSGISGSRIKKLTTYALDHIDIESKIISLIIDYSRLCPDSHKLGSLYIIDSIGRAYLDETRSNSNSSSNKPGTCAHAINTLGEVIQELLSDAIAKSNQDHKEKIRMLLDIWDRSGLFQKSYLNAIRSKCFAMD
The experiment can be described thus: Equilibrium binding of FAM-labelled peptides to Nrd1p CID by fluorescence anisotropy (FA). More on the design: species or system S. cerevisiae.

Experiment [1] has as its target Nrd1p CID (residues 1-153) (UniProt P53617). Put plainly: fluorescence anisotropy (FA) equilibrium binding. Background: In fluorescence polarisation assays a small probe gives low polarisation when free and higher when bound to something large.
Experiment [2] addresses T2, Nrd1p CID (residues 1-153) (S. cerevisiae, UniProt P53617 1-153).
T2 construct: also called Nrd1 CID
T2 sequence (looked up): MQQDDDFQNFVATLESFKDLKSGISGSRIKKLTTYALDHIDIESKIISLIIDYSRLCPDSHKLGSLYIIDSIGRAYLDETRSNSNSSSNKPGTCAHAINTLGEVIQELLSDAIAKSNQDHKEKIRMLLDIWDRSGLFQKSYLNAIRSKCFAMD
The experiment can be described thus: NMR solution structure; reconstituted complex of 15N,13C-labeled Nrd1p CID and unlabeled NIM peptide; 50 mM sodium phosphate pH 8.0, 100 mM NaCl, 20°C. Conditions: both partners purified.

Experiment [3] addresses T3, Nrd1p CID (residues 1-153), P53617.
T3 chain: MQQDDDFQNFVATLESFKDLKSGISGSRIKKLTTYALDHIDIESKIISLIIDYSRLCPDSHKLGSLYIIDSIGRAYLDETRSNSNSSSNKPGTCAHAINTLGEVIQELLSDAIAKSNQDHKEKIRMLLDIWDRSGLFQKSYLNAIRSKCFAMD
Put plainly: fluorescence anisotropy (FA) equilibrium binding. Particulars: chain shown with the change.

For experiment [4], the target named is B3. Put plainly: FP.
The target of experiment [5] is T4, FAM-labeled Trf4p NIM peptide.
T4 chain: DDDEDGYNPYTL
Put plainly: fluorescence anisotropy (FA) equilibrium binding. Particulars: chain shown with the change.

A further experiment concerns the target T5, NIM D577R (Saccharomyces cerevisiae, not fully specified (N-terminus); also: FAM label (position not given here)).
T5 chain: DDDERGYNPYTL
The experiment can be described thus: FP.

The target in the next experiment is T6, NIM N580A (Saccharomyces cerevisiae, not fully specified (N-terminus); also: FAM label (position not given here)).
T6 chain: DDDEDGYAPYTL
The experiment can be described thus: FP.

In experiment [6] the target is FAM-labeled Ser5P CTD peptide (S. cerevisiae). Put plainly: fluorescence polarisation; fluorescence anisotropy competition; preformed complex of 10 nM FAM-labeled Ser5P CTD and Nrd1p CID (120 μM) titrated with unlabeled Trf4p NIM peptide; KD calculated using 1.08 μM for CID-NIM.
Experiment [7] addresses FAM-labeled Trf4p NIM peptide (S. cerevisiae). Put plainly: fluorescence polarisation; fluorescence anisotropy; fluorescently labeled peptide titrated with Nrd1p CID; equilibrium binding in solution.
In experiment [8] the target is FAM-labeled Ser5P CTD peptide (S. cerevisiae). Described as above.
Experiment [9] deals with T7, FAM-labeled Trf4p NIM peptide.
T7 chain: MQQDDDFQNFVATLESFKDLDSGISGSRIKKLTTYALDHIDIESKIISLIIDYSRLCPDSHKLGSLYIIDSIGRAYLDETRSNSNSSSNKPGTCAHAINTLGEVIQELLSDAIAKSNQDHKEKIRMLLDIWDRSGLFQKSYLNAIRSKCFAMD
Put plainly: fluorescence anisotropy (FA) equilibrium binding. Particulars: chain shown with the change.

Experiment [10] deals with T8, FAM-labeled Trf4p NIM peptide.
T8 chain: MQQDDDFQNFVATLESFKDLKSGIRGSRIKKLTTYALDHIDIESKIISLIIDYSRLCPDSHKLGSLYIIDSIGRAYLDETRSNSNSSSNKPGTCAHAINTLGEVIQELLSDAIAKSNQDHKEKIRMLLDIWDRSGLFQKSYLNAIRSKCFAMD
The experiment can be described thus: fluorescence anisotropy (FA) equilibrium binding. Conditions: chain shown with the change.

Where a SMILES comes first, the peptide text is derived from it. Where no end group is shown, it is not given here.

Broadly, the Kd is the constant that tells how readily two partners part at equilibrium. On to `CC(C)C[C@H](NC(=O)[C@@H](NC(=O)[C@H](Cc1ccc(O)cc1)NC(=O)[C@@H]1CCCN1C(=O)[C@H](C)NC(=O)[C@H](Cc1ccc(O)cc1)NC(=O)CNC(=O)[C@H](CC(=O)O)NC(=O)[C@H](CCC(=O)O)NC(=O)[C@H](CC(=O)O)NC(=O)[C@H](CC(=O)O)NC(=O)[C@H](CC(=O)O)NC(=O)c1ccc2c(c1)C(=O)OC21c2ccc(O)cc2Oc2cc(O)ccc21)[C@@H](C)O)C(=O)O` [N580A] (HELM PEPTIDE1{[O=C1OC2(c3ccc(O)cc3Oc3cc(O)ccc32)c2ccc(C(=O)[*:2])cc21].D.D.D.E.D.G.Y.A.P.Y.T.L}$$$$V2.0), for which the Kd at Nrd1p CID turned out to be 4.3 ± 0.1 µM. In the case of `CC(C)C[C@H](NC(=O)[C@@H](NC(=O)[C@H](Cc1ccc(O)cc1)NC(=O)[C@@H]1CCCN1C(=O)[C@H](CC(N)=O)NC(=O)[C@H](Cc1ccc(O)cc1)NC(=O)CNC(=O)[C@H](CCCNC(=N)N)NC(=O)[C@H](CCC(=O)O)NC(=O)[C@H](CC(=O)O)NC(=O)[C@H](CC(=O)O)NC(=O)[C@H](CC(=O)O)NC(=O)c1ccc2c(c1)C(=O)OC21c2ccc(O)cc2Oc2cc(O)ccc21)[C@@H](C)O)C(=O)O` [D577R] (HELM PEPTIDE1{[O=C1OC2(c3ccc(O)cc3Oc3cc(O)ccc32)c2ccc(C(=O)[*:2])cc21].D.D.D.E.R.G.Y.N.P.Y.T.L}$$$$V2.0), binding on Nrd1p CID was put at a Kd of 24.2 ± 0.6 µM. Turning to `CC(C)C[C@H](NC(=O)[C@@H](NC(=O)[C@H](Cc1ccc(O)cc1)NC(=O)[C@@H]1CCCN1C(=O)[C@H](CC(N)=O)NC(=O)[C@H](Cc1ccc(O)cc1)NC(=O)CNC(=O)[C@H](CC(=O)O)NC(=O)[C@H](CCC(=O)O)NC(=O)[C@H](CCCNC(=N)N)NC(=O)[C@H](CC(=O)O)NC(=O)[C@H](CC(=O)O)NC(=O)c1ccc2c(c1)C(=O)OC21c2ccc(O)cc2Oc2cc(O)ccc21)[C@@H](C)O)C(=O)O` [D575R] (HELM PEPTIDE1{[O=C1OC2(c3ccc(O)cc3Oc3cc(O)ccc32)c2ccc(C(=O)[*:2])cc21].D.D.R.E.D.G.Y.N.P.Y.T.L}$$$$V2.0), the Kd at Nrd1p CID worked out at 7.7 ± 0.2 µM. With `CC(C)C[C@H](NC(=O)[C@@H](NC(=O)[C@H](Cc1ccc(O)cc1)NC(=O)[C@@H]1CCCN1C(=O)[C@H](CC(N)=O)NC(=O)[C@H](Cc1ccc(O)cc1)NC(=O)CNC(=O)[C@H](CC(=O)O)NC(=O)[C@H](CCC(=O)O)NC(=O)[C@H](CC(=O)O)NC(=O)[C@H](CC(=O)O)NC(=O)[C@H](CC(=O)O)NC(=O)c1ccc2c(c1)C(=O)OC21c2ccc(O)cc2Oc2cc(O)ccc21)[C@@H](C)O)C(=O)O` [Trf4p NIM] (HELM PEPTIDE1{[O=C1OC2(c3ccc(O)cc3Oc3cc(O)ccc32)c2ccc(C(=O)[*:2])cc21].D.D.D.E.D.G.Y.N.P.Y.T.L}$$$$V2.0; C-terminus assumed), on Nrd1p CID, the Kd came to 1.09 ± 0.01 µM. Turning to FAM-labeled Trf4p NIM peptide Y579A, the Kd in experiment [1] came out at 283 µM.

B1: 12 aa NIM peptide of Trf4p (peptide)
peptide: DDDEDGYNPYTL
notes: printed in three-letter code; also called Trf4p NIM; unlabeled NIM
Take B1: in [2], the binding result is given as “binds”. DDDADGYNPYTL [FAM-labeled Trf4p NIM peptide E576A]: the Kd in experiment [3] was 3.2 µM. Consider DDDEDGANPYTL (not fully specified (N-terminus); also: FAM label (position not given here)) [Trf4p NIM peptide with alanine at Tyr579], for which binding in experiment [4] was put at a Kd of 263 µM. In experiment [4], DDDRDGYNPYTL [Trf4p NIM peptide with Glu576 changed to arginine] returned a Kd of 4.6 µM.

B2: Nrd1p CID (residues 1-153), P53617 L20D (protein)
chain: MQQDDDFQNFVATLESFKDDKSGISGSRIKKLTTYALDHIDIESKIISLIIDYSRLCPDSHKLGSLYIIDSIGRAYLDETRSNSNSSSNKPGTCAHAINTLGEVIQELLSDAIAKSNQDHKEKIRMLLDIWDRSGLFQKSYLNAIRSKCFAMD
B2: the Kd in experiment [5] amounted to 44.9 µM.

B3: the Kd with NIM D577R was 24.2 µM; with NIM N580A, 4.3 µM; in experiment [6], 120 µM; in experiment [7] it was 1.08 µM; in experiment [8], 130 µM.

B4: Nrd1p CID (residues 1-153), P53617 D70A (protein)
chain: MQQDDDFQNFVATLESFKDLKSGISGSRIKKLTTYALDHIDIESKIISLIIDYSRLCPDSHKLGSLYIIASIGRAYLDETRSNSNSSSNKPGTCAHAINTLGEVIQELLSDAIAKSNQDHKEKIRMLLDIWDRSGLFQKSYLNAIRSKCFAMD
In the case of B4, the Kd in experiment [5] came out at 39.8 µM.

B5: Nrd1p CID (residues 1-153), P53617 R28D (protein)
chain: MQQDDDFQNFVATLESFKDLKSGISGSDIKKLTTYALDHIDIESKIISLIIDYSRLCPDSHKLGSLYIIDSIGRAYLDETRSNSNSSSNKPGTCAHAINTLGEVIQELLSDAIAKSNQDHKEKIRMLLDIWDRSGLFQKSYLNAIRSKCFAMD
As for B5, in [5], the Kd stood at 96.9 µM.

B6: Nrd1p CID (residues 1-153), P53617 I130K (protein)
chain: MQQDDDFQNFVATLESFKDLKSGISGSRIKKLTTYALDHIDIESKIISLIIDYSRLCPDSHKLGSLYIIDSIGRAYLDETRSNSNSSSNKPGTCAHAINTLGEVIQELLSDAIAKSNQDHKEKIRMLLDKWDRSGLFQKSYLNAIRSKCFAMD
In the case of B6, the Kd in experiment [5] came to 20.7 µM.

B7: Nrd1p CID Ile130Lys (domain or fragment)
chain: MQQDDDFQNFVATLESFKDLKSGISGSRIKKLTTYALDHIDIESKIISLIIDYSRLCPDSHKLGSLYIIDSIGRAYLDETRSNSNSSSNKPGTCAHAINTLGEVIQELLSDAIAKSNQDHKEKIRMLLDKWDRSGLFQKSYLNAIRSKCFAMD
Consider B7, for which the fold decrease in binding affinity against wild-type Nrd1p CID in experiment [7] came out at 20 fold.

On to DDDEDGYNPYTL [Nrd1p CID (residues 1-153), P53617 K21D], for which the Kd in experiment [9] was 35.4 µM. Take DDDRDGYNPYTL [FAM-labeled Trf4p NIM peptide E576R]: the Kd in experiment [3] was found to be 4.8 µM.

Molecule DDDEDGYNPYTL [Nrd1p CID (residues 1-153), P53617 S25R] displayed a Kd in experiment [10] of 146 µM.
